Patent US5198424A, “Functionally active selectin-derived peptides” (Board of Regents of the University of Oklahoma, priority 1992, dated 1993)

Molecular target: T1, GMP-140 (Homo sapiens, UniProt P16109)
T1 sequence (P16109 42-830): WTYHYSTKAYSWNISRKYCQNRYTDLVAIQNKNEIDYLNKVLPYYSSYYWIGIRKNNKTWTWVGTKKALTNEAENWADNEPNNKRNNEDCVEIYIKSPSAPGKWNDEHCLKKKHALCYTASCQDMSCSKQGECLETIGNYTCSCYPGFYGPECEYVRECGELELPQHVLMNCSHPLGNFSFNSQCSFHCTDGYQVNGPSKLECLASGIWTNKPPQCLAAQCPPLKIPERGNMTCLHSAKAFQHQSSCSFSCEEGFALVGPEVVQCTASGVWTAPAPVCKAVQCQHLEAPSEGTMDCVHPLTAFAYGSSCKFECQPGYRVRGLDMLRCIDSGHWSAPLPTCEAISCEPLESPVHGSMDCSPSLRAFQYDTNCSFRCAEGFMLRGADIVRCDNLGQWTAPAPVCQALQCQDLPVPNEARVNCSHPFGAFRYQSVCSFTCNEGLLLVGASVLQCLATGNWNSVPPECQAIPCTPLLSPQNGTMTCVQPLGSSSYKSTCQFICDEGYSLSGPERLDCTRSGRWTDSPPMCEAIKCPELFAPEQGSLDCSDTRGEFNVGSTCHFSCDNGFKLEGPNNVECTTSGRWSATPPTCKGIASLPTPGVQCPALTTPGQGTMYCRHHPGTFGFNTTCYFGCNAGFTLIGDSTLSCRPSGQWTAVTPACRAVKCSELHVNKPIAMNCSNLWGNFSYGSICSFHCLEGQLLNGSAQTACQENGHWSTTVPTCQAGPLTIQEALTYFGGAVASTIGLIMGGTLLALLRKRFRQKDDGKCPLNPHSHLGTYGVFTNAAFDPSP
Assay: Binding of stimulated platelets to neutrophils in the presence of Ca2+
Format: cell-based
Set-up: GMP-140 also mediates adhesion of neutrophils to stimulated platelets; endogenous in cells; host or cells: stimulated platelets

B1: GMP-140: granule membrane protein 140, isolated from human platelet lysates by immunoaffinity and ion-exchange chromatography (protein, UniProt P16109 42-830, looked up)
P-selectin: WTYHYSTKAYSWNISRKYCQNRYTDLVAIQNKNEIDYLNKVLPYYSSYYWIGIRKNNKTWTWVGTKKALTNEAENWADNEPNNKRNNEDCVEIYIKSPSAPGKWNDEHCLKKKHALCYTASCQDMSCSKQGECLETIGNYTCSCYPGFYGPECEYVRECGELELPQHVLMNCSHPLGNFSFNSQCSFHCTDGYQVNGPSKLECLASGIWTNKPPQCLAAQCPPLKIPERGNMTCLHSAKAFQHQSSCSFSCEEGFALVGPEVVQCTASGVWTAPAPVCKAVQCQHLEAPSEGTMDCVHPLTAFAYGSSCKFECQPGYRVRGLDMLRCIDSGHWSAPLPTCEAISCEPLESPVHGSMDCSPSLRAFQYDTNCSFRCAEGFMLRGADIVRCDNLGQWTAPAPVCQALQCQDLPVPNEARVNCSHPFGAFRYQSVCSFTCNEGLLLVGASVLQCLATGNWNSVPPECQAIPCTPLLSPQNGTMTCVQPLGSSSYKSTCQFICDEGYSLSGPERLDCTRSGRWTDSPPMCEAIKCPELFAPEQGSLDCSDTRGEFNVGSTCHFSCDNGFKLEGPNNVECTTSGRWSATPPTCKGIASLPTPGVQCPALTTPGQGTMYCRHHPGTFGFNTTCYFGCNAGFTLIGDSTLSCRPSGQWTAVTPACRAVKCSELHVNKPIAMNCSNLWGNFSYGSICSFHCLEGQLLNGSAQTACQENGHWSTTVPTCQAGPLTIQEALTYFGGAVASTIGLIMGGTLLALLRKRFRQKDDGKCPLNPHSHLGTYGVFTNAAFDPSP
binding of platelets to neutrophils: inhibited
